From patent US20210121406A1 (AstraZeneca / MedImmune, published 2021)
Substitutions are numbered along the chain they refer to.

B1: Fab1 (Fab, V domains shown)
VH: QMQLVESGGGVVQPGRSLRLSCAASGFTFRTYGMHWVRQAPGKGLEWVAVIWYDGSNKHYADSVKGRFTITRDNSKNTLNLQMNSLRAEDTAVYYCARAPQWELVHEAFDIWGQGTMVTVSS
VL: SYVLTQPPSVSVAPGQTARITCGGNNLGSKSVHWYQQKPGQAPVLVVYDDSDRPSWIPERFSGSNSGNTATLTISRGEAGDEADYYCQVWDSSSDHVVFGGGTKLTVLG
notes: CDRs of anti-TSLP mAb A5 (WO 2009/035577) cloned into an IgG1 Fab scaffold; also called anti-TSLP Fab; MEDI8630
B2: Fab2 (Fab, V domains shown)
VH: B1 VH
VL: SYVLTQPPSVSVAPGQTARITCGGNNIGSKSVHWYQQKPGQAPVLVVYDDSDRPSWIPERFSGSNSGNTATLTISRGEAGDEADYYCQVWDSSSDHVVFGGGTKLTVL
B3: Fab6 (Fab, V domains shown)
VH: B1 VH
VL: B2 VL with N25Q, I27L
notes: Only the changed VL is printed
B4: Fab8 (Fab, V domains shown)
VH: B1 VH
VL: B2 VL with I27L, S92T
notes: as for B3
B5: Fab9 (Fab, V domains shown)
VH: B1 VH
VL: B2 VL with I27L, S93T
notes: as for B3
B6: Fab3 (Fab, V domains shown)
VH: B1 VH
VL: B2 VL with I27V
notes: as for B3
B7: Fab4 (Fab, V domains shown)
VH: B1 VH with D62E
VL: B2 VL with I27L
notes: Only the changed VH is printed
B8: Fab7 (Fab, V domains shown)
VH: B1 VH
VL: B2 VL with N26Q, I27L
notes: VL as labelled 'LIGHT CHAIN VL FAB7'
B9: Fab5 (Fab, V domains shown)
VH: B1 VH with G66A
VL: B2 VL with I27L
notes: as for B7
B10: cyno TSLP (ligand, cynomolgus (cyno))
chain: YDFTNCDFQKIEADYLRTISKDLITYMSGTKSTDFNNTVSCSNRPHCLTEIQSLTFNPTPRCASLAKEMFARKTKATLALWCPGYSETQINATQAMKKRRKRKVTTNKCLEQVSQLLGLWRRFIRTLLKKQ
notes: As used in solution in the KinExA assay; also called Cynomolgus TSLP

Assays:
cyno TSLP = target: B10; test: KinExA, solution phase, global 1:1 fit
[1] = target: T1, N-terminally tagged biotinylated cyno TSLP (cynomolgus (cyno), UniProt A0A7N9CAT7 29-159, biotinylated (site not stated)); test: SPR (Biacore 8K), biotinylated TSLP on streptavidin, Fab1 in flow, 1:1 Langmuir model
T1 construct: Captured on streptavidin in the Biacore assay; also called Cynomolgus TSLP; recombinant mammalian cell-expressed cyno TSLP; not shown: N-terminal tag

[2] = target: T2, biotinylated His-Avi hu TSLP (human, UniProt Q969D9 29-159, biotinylated (site not stated)); test: HTRF competition; competitor DyLight-labelled tezepelumab
T2 construct: also called biotinylated TSLP; not shown: His-Avi tag

Fab1 [3] = target: B1; test: KinExA, cyno TSLP titrated into 40 pM fixed Fab1 (open squares); free Fab1 captured on hu TSLP-coated beads
Fab1 [4] = target: B1; test: KinExA, cyno TSLP titrated into 1000 pM fixed Fab1 (filled diamonds); free Fab1 captured on hu TSLP-coated beads

| IC50 [2] [nM] | Binder | further results |
| --- | --- | --- |
|  | B1 | Kd (cyno TSLP): 0.0136 nM; Kd [1]: 0.0884 nM |
| 0.29 | B2 |  |
| 0.32 | B3 |  |
| 0.29 | B4 |  |
| 0.29 | B5 |  |
| 0.24 | B6 |  |
| 0.36 | B7 |  |
| 0.24 | B8 |  |
| 0.42 | B9 |  |
|  | B10 | IC50 (read off the curve) (Fab1 [3]): ~0.04 nM; IC50 (read off the curve) (Fab1 [4]): ~0.6 nM |
